Measured values: article PMC5714612 (Cell Reports, 2017)
Each block holds one molecule with its values, some of them ahead of it.

B1: Kif1A-GFP (natural protein, rat, UniProt F1M4A4 1-1707, looked up)
chain: MAGASVKVAVRVRPFNSREMSRDSKCIIQMSGSTTTIVNPKQPKETPKSFSFDYSYWSHTSPEDINYASQKQVYRDIGEEMLQHAFEGYNVCIFAYGQTGAGKSYTMMGKQEKDQQGIIPQLCEDLFSRINDTTNDNMSYSVEVSYMEIYCERVRDLLNPKNKGNLRVREHPLLGPYVEDLSKLAVTSYNDIQDLMDSGNKARTVAATNMNETSSRSHAVFNIIFTQKRHDAETNITTEKVSKISLVDLAGSERADSTGAKGTRLKEGANINKSLTTLGKVISALAEMDSGPNKNKKKKKTDFIPYRDSVLTWLLRENLGGNSRTAMVAALSPADINYDETLSTLRYADRAKQIRCNAIINEDPNNKLIRELKDEVTRLRDLLYAQGLGDITDTNTVPGGPKLTNALVGMSPSSSLSALSSRAASVSSLHERILFAPGSEEAIERLKETEKIIAELNETWEEKLRRTEAIRMEREALLAEMGVAMREDGGTLGVFSPKKTPHLVNLNEDPLMSECLLYYIKDGVTRVGREDAERRQDIVLSGHFIKEEHCIFRSDSRGGGEAVVTLEPCEGADTYVNGKKVTEPSILRSGNRIIMGKSHVFRFNHPEQARQERERTPCAETPAEPVDWAFAQRELLEKQGIDMKQEMEQRLQELEDQYRREREEATYLLEQQRLDYESKLEALQKQMDSRYYPEVNEEEEEPEDEVQWTERECELALWAFRKWKWYQFTSLRDLLWGNAIFLKEANAISVELKKKVQFQFVLLTDTLYSPLPPDLLPPEAAKDRETRPFPRTIVAVEVQDQKNGATHYWTLEKLRQRLDLMREMYDRAAEVPSSVVEDCDNVVTGGDPFYDRFPWFRLVGRAFVYLSNLLYPVPLVHRVAIVSEKGEVKGFLRVAVQAISADEEAPDYGSGVRQSGTAKISFDDQHFEKFQSESCPVVGMSRSGTSQEELRIVEGQGQGADAGPSADEVNNNTCSAVPPEGLLDSPEKAALDGPLDTALDHLRLGSTFTFRVTVLQASSISAEYADIFCQFNFIHRHDEAFSTEPLKNTGRGPPLGFYHVQNIAVEVTKSFIEYIKSQPIVFEVFGHYQQHPFPPLCKDVLSPLRPSRRHFPRVMPLSKPVPATKLSTMTRPSPGPCHCKYDLLVYFEICELEANGDYIPAVVDHRGGMPCMGTFLLHQGIQRRITVTLLHETGSHIRWKEVRELVVGRIRNTPETDEALIDPNILSLNILSSGYVHPAQDDRQFLDSDIPRTFYQFEAAWDSSMHNSLLLNRVTPYREKIYMTLSAYIEMENCTQPAVITKDFCMVFYSRDAKLPASRSIRNLFGSGSLRATEGNRVTGVYELSLCHVADAGSPGMQRRRRRVLDTSVAYVRGEENLAGWRPRSDSLILDHQWELEKLSLLQEVEKTRHYLLLREKLETTQRPVPEVLSPASSEDSESRSSSGASSPLSAEGQPSPLEVPNERQRELAVKCLRLLMHTFNREYTHSHVCISASESKLSEMSVTLMRDPSMSPLGAATLTPSSTCPSLIEGRYGATDVRTPQPCSRPASPEPELLPELDSKKTPSPVRATETEKEPQRLLVPDIQEIRVSPIVSKKGYLHFLEPHTAGWAKRFVVVRRPYAYMYNSDKDTVERFVLNLSTAQVEYSEDQQAMLKTPNTFAVCTEHRGILLQANSDKDMHDWLYAFNPLLAGTIRSKLSRRRSAQMRV
B3: mCherry-tagged S135A Syt4 (phosphodeficient) (natural protein, rat, UniProt P50232 1-425, looked up)
chain: MAPITTSRVEFDEIPTVVGIFSAFGLVFTVSLFAWICCQRRSAKSNKTPPYKFVHVLKGVDIYPENLSSKKKFGGDDKSEAKRKAALPNLSLHLDLEKRDLNGNFPKTNPKAGSSSDLENVTPKLFPETEKEAVAPESLKSSTSLTSEEKQEKLGTLFLSLEYNFEKKAFVVNIKEAQGLPAMDEQSMTSDPYIKMTILPEKKHKVKTRVLRKTLDPVFDETFTFYGVPYPHIQELSLHFTVLSFDRFSRDDVIGEVLVPLSGIELSDGKMLMTREIIKRNAKKSSGRGELLVSLCYQSTTNTLTVVVLKARHLPKSDVSGLSDPYVKVNLYHAKKRISKKKTHVKKCTPNAVFNELFVFDIPCESLEEISVEFLVLDSERGSRNEVIGRLVLGATAEGSGGGHWKEICDFPRRQIAKWHMLCDG
B4: mCherry-tagged S135E Syt4 (phosphomimetic) (natural protein, rat, UniProt P50232 1-425, looked up)
chain: MAPITTSRVEFDEIPTVVGIFSAFGLVFTVSLFAWICCQRRSAKSNKTPPYKFVHVLKGVDIYPENLSSKKKFGGDDKSEAKRKAALPNLSLHLDLEKRDLNGNFPKTNPKAGSSSDLENVTPKLFPETEKEAVEPESLKSSTSLTSEEKQEKLGTLFLSLEYNFEKKAFVVNIKEAQGLPAMDEQSMTSDPYIKMTILPEKKHKVKTRVLRKTLDPVFDETFTFYGVPYPHIQELSLHFTVLSFDRFSRDDVIGEVLVPLSGIELSDGKMLMTREIIKRNAKKSSGRGELLVSLCYQSTTNTLTVVVLKARHLPKSDVSGLSDPYVKVNLYHAKKRISKKKTHVKKCTPNAVFNELFVFDIPCESLEEISVEFLVLDSERGSRNEVIGRLVLGATAEGSGGGHWKEICDFPRRQIAKWHMLCDG

What was measured:
[1] = target: Kif1A (Kif1A-GFP, GST-tagged full-length Kif1A) (UniProt F1M4A4); assay: co-IP with GFP-Trap beads, Syt4 blotted; conditions: reference: S135A; sites S135
[2] = target: B4; assay: co-IP
[3] = target: B3; assay: co-IP
[4] = target: T1, Recombinant His-tagged S135E Syt4 (rat, UniProt P50232 1-425, S135E); assay: pull-down
T1 sequence (looked up): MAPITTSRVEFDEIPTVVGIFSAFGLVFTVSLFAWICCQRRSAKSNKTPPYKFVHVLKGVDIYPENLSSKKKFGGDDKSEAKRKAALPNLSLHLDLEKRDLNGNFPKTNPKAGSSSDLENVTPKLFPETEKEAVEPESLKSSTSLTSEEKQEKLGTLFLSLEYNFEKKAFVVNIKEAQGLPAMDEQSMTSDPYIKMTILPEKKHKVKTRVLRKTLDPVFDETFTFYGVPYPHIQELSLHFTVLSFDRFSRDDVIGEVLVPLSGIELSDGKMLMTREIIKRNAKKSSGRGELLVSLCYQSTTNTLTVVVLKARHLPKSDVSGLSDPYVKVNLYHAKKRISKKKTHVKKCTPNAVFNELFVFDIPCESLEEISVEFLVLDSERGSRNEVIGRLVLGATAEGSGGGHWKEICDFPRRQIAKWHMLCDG

[5] = target: B1; assay: co-IP

other: percent of WT [1]: weaker; reference 134.4 ± 11.1
Molecule: Synaptotagmin-4 (Syt4) (from UniProt P50232) S135E

Molecule: B1
amount co-immunoprecipitated, percent of WT [2]: 87 % of WT
amount co-immunoprecipitated, percent of WT [3]: 158 % of WT

amount pulled down, percent of WT [4]: 43.6 % of WT
B2: endogenous Kif1A (natural protein, UniProt P33173 1-1695, looked up)
chain: MAGASVKVAVRVRPFNSREMSRDSKCIIQMSGSTTTIVNPKQPKETPKSFSFDYSYWSHTSPEDINYASQKQVYRDIGEEMLQHAFEGYNVCIFAYGQTGAGKSYTMMGKQEKDQQGIIPQLCEDLFSRINDTTNDNMSYSVEVSYMEIYCERVRDLLNPKNKGNLRVREHPLLGPYVEDLSKLAVTSYNDIQDLMDSGNKPRTVAATNMNETSSRSHAVFNIIFTQKRHDAETNITTEKVSKISLVDLAGSERADSTGAKGTRLKEGANINKSLTTLGKVISALAEMDSGPNKNKKKKKTDFIPYRDSVLTWLLRENLGGNSRTAMVAALSPADINYDETLSTLRYADRAKQIRCNAIINEDPNNKLIRELKDEVTRLRDLLYAQGLGDITDMTNALVGMSPSSSLSALSSRAASVSSLHERILFAPGSEEAIERLKETEKIIAELNETWEEKLRRTEAIRMEREALLAEMGVAMREDGGTLGVFSPKKTPHLVNLNEDPLMSECLLYYIKDGVTRVGREDAERRQDIVLSGHFIKEEHCIFRSDSRGGGEAVVTLEPCEGADTYVNGKKVTEPSILRSGNRIIMGKSHVFRFNHPEQARQERERTPCAETPAEPVDWAFAQRELLEKQGIDMKQEMEQRLQELEDQYRREREEATYLLEQQRLDYESKLEALQKQMDSRYYPEVNEEEEEPEDEVQWTERECELALWAFRKWKWYQFTSLRDLLWGNAIFLKEANAISVELKKKVQFQFVLLTDTLYSPLPPDLLPPEAAKDRETRPFPRTIVAVEVQDQKNGATHYWTLEKLRQRLDLMREMYDRAAEVPSSVVEDCDNVVTGGDPFYDRFPWFRLVGRAFVYLSNLLYPVPLVHRVAIVSEKGEVKGFLRVAVQAISADEEAPDYGSGVRQSGTAKISFDDQHFEKFQSESCPVVGMSRSGTSQEELRIVEGQGQGADAGPSADEVNNNTCSAVPPEGLMDSPEKAALDGPLDTALDHLRLGSTFTFRVTVLQASSISAEYADIFCQFNFIHRHDEAFSTEPLKNTGRGPPLGFYHVQNIAVEVTKSFIEYIKSQPIVFEVFGHYQQHPFPPLCKDVLSPLRPSRRHFPRVMPLSKPVPATKLSTMTRPSPGPCHCKYDLLVYFEICELEANGDYIPAVVDHRGACMGTFLLHQGIQRRITVTLLHETGSHIRWKEVRELVVGRIRNTPETDEALIDPNILSLNILSSGYVHPAQDDRVFFGNDTRTFYQFEAAWDSSMHNSLLLNRVTPYREKIYMTLSAYIEMENCTQPAVITKDFCMVFYSRDAKLPASRSIRNLFGSGSLRATEGNRVTGVYELSLCHVADAGSPGMQRRRRRVLDTSVAYVRGEENLAGWRPRSDSLILDHQWELEKLSLLQEVEKTRHYLLLREKLETTQRPGPEVLSPASSEDSESRSSSGASSPLSAEGQPSPLEAPNERQRELAVKCLRLLMHTFNREYTHSHVCISASESKLSEMSVTLMRDPSMSPLGAATLTPSSTCPSLIEGRYGATDVRTPQPCSRPASPEPELLPELDSKKTPSPVRATETEKEPQRLLVPDIQEIRVSPIVSKKGYLHFLEPHTAGWAKRFVVVRRPYAYMYNSDKDTVERFVLNLSTAQVEYSEDQQAMLKTPNTFAVCTEHRGILLQANSDKDMHDWLYAFNPLLAGTIRSKLSRRRSAQMRV

Molecule: B3
amount co-immunoprecipitated, percent of WT [5]: 134 % of WT

Molecule: B4
amount co-immunoprecipitated, percent of WT [5]: 42.9 % of WT
